The results in this text go back to patent US20170051048A1 (ALDERBIO, published 2017).

The target of assay [1] is T1, Homo sapiens Beta-Nerve Growth Factor (beta-NGF) (Homo sapiens, UniProt P01138 122-241).
T1 construct: Biotinylated and held on neutravidin plates in the ELISA; also called huNGF; B-NGF
The assay is described as follows: antigen binding ELISA: biotinylated NGF on neutravidin plates, anti-human Fc-HRP, OD at 450 nm. The protocol: (§1) To identify and characterize antibodies and Fab fragments that bind to human NGF, antibody- and Fab-containing solutions were tested by ELISA. Briefly, neutravidin coated plates (Thermo Scientific), were blocked with ELISA buffer (0.1 mg/mL BSA, 1×PBS pH 7.4, 0.002% Tween 20 and 0.005% sodium azide) for 1 hr at room temperature. The plates were then coated with a 1 µg/mL biotinylated B-NGF solution in ELISA buffer for 1 hour at room temperature. This was followed by a wash step (3× using PBS plus 0.05% Tween 20) and a second block with ELISA buffer. The recombinant antibodies or Fabs were then added onto the plates and incubated for 1 hour at room temperature and then washed 3× with PBS/Tween solution. For development, an anti-human Fc-HRP or an anti-human Fab-fragment HRP (1:5000 dilution in ELISA buffer) was added onto the wells and incubated for 45 min at RT. After a 3× wash step with PBS/Tween solution, the plate was developed using TMB substrate for 3 minutes, stopped using 0.5M HCl, and read at 450 nm.

The target in assay [2] is T1, Homo sapiens Beta-Nerve Growth Factor …. Briefly: Antigen binding ELISA: biotinylated NGF on neutravidin plates, anti-human Fc-HRP, OD 450 nm. The method, then: as §1
(ELISA stands for enzyme-linked immunosorbent assay.)

T1 sequence (P01138 122-241): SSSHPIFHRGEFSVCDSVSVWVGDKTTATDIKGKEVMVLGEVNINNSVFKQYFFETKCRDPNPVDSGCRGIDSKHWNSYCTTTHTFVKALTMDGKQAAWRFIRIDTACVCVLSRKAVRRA

B1: Antibody Ab9 (antibody, human IgG1, kappa, N297A, V domains shown)
VH: QSVEESGGRLVTPGTPLTLTCTVSGIDLSMYSMGWVRQAPGKGLEYIGWISYGGTAYYASWAKGRFTISKTSTTVELKITSPTIEDTATYFCARETPVNYYLDIWGQGTLVTVSS
VL: AYDMTQTPASVSAAVGGTVTIKCQASENIGSYLAWYQQKPGQPPELLIYRASTLASGVPSRFKGSGSGTQFTLTISGVECADAATYYCQQGYNSENLDNAFGGGTEVVVKR
What is called EC50 is the concentration needed to bring the measured effect to its halfway point. A low value points to greater potency. The molecule B1 yielded an EC50 in assay [1] of 0.221 nM.

B2: Antibody Ab7 (antibody, human IgG1, kappa, N297A, V domains shown)
VH: QEQLKESGGRLVTPGTPLTLTCTVSGFSLSSYAMIWVRQAPGKGLEYIGYIDTDTSAYYASWVKGRFTISRTSTTVDLKITSPTTEDTATYFCARSYAAYGGYPATFDPWGPGTLVTVSS
VL: DVVMTQTPASVSQPVGGTVTIKCQASEDIYNLLAWYQQKPGQPPKLLIYSASTLASGVPSRFKGSGSGTEYTLTISGLECADAATYYCQNNYLVTTYGVAFGGGTEVVVKR
In assay [1], B2 registered an EC50 of 0.203 nM.

B3: Antibody Ab8 (antibody, human IgG1, kappa, N297A, V domains shown)
VH: QVQLVESGGGVVQPGRSLRLSCAASGFTFSSYAMIWVRQAPGKGLEYIGYIDTDTSAYYASSVKGRFTISRDNSKNTLYLQMSSLRAEDTAVYYCARSYAAYGGYPATFDPWGQGTLVTVSS
VL: DIQMTQSPSSLSASVGDRVTITCQASEDIYNLLAWYQQKPGKVPKLLIYSASTLASGVPSRFSGSGSGTDYTLTISSLQPEDVATYYCQNNYLVTTYGVAFGGGTKVEIKR
B3 registered an EC50 in assay [1] of 0.207 nM.

B4: Antibody Ab12 (antibody, human IgG1, kappa, N297A, V domains shown)
VH: QVQLVESGGGVVQPGRSLRLSCAASGFSLSGYDMSWVRQAPGKGLEWVGLISYDGNTYYATSAKGRFTISRDNSKNTLYLQMSSLRAEDTAVYYCARSLYAGPNAGIGPFNIWGQGTLVTVSS
VL: AFQMTQSPSSLSASVGDRVTITCQASQNIVTNLAWYQQKPGKVPKLLIYGASTLASGVPSRFSGSGSGTDFTLTISSLQPEDVATYYCQSYDGFNSAGFGGGTKVEIKR
Molecule B4 had an EC50 in assay [1] of 0.78 nM.

B5: Antibody Ab10 (antibody, human IgG1, kappa, N297A, V domains shown)
VH: QVQLVESGGGVVQPGRSLRLSCAASGFTFSMYSMGWVRQAPGKGLEYIGWISYGGTAYYASSAKGRFTISRDNSKNTLYLQMSSLRAEDTAVYYCARETPVNYYLDIWGQGTLVTVSS
VL: AYDMTQSPSSLSASVGDRVTITCQASENIGSYLAWYQQKPGKVPKLLIYRASTLASGVPSRFSGSGSGTDFTLTISSLQPEDVATYYCQQGYNSENLDNAFGGGTKVEIKR
Molecule B5 returned an EC50 in assay [1] of 0.306 nM. This EC50 lies about 2.5-fold lower than the previous one.

B6: Antibody Ab15 (antibody, human IgG1, kappa, N297A, V domains shown)
VH: QSVEESGGRLVTPGTPLTLTCTVSGIDLSSYAMIWVRQAPGKGLEYIGIIWSGGTYYATWAKGRFTISKTSTTVDLQITSPTTEDAATYFCAAGGGSIYDVWGPGTLVTVSS
VL: AAVLTQTPSPVSAAVGDTVTIKCQSSQSVYKNNYLSWYQQKPGQPPKLLIYDASNLPSGVPSRFSGSGSGTQFTLTISGVQCDDAATYYCLGDYDDDTDNGFGGGTEVVVKR
In the case of B6, the half-maximal effective concentration (EC50) in assay [1] came to 0.239 nM.

B7: Antibody Ab4 (antibody, human IgG1, kappa, N297A, V domains shown)
VH: EVQLVESGGGLVQPGGSLRLSCAASGFTVSSYVMIWVRQAPGKGLEYIGITWSAGTYYASSAKGRFTISRDNSKNTLYLQMNSLRAEDTAVYYCAGGGGSIYDIWGQGTLVTVSS
VL: DIQMTQSPSTLSASVGDRVTITCQSSQSVYKNNYLSWYQQKPGKAPKLLIYDASNLPSGVPSRFSGSGSGTEFTLTISSLQPDDFATYYCLGDYDDDADNAFGGGTKVEIKR
What is called EC50 (read off the curve) is the midpoint of the concentration-response curve. Low readings indicate higher potency in that assay, high ones lower potency in that assay. In the case of B7, in assay [2], the EC50 is 0.535 nM and the “EC50 (read off the curve)” value was approximately 0.05 nM.

B8: Antibody Ab11 (antibody, human IgG1, kappa, N297A, V domains shown)
VH: QSLEESGGRLVTPGTPLTLTCTASGFSLSGYDMSWVRQAPGKGLEYIGLISYDGNTYYATWAKGRFTISKTSTTVDLKITSPTTEDTATYFCARSLYAGPNAGIGPFNIWGQGTLVTVSS
VL: AFELTQTPSSVEAAVGGTVTIKCQASQNIVTNLAWYQQKPGQPPKLLIYGASTLASGVSSRFKGSGSGTQFTLTISDLECADAATYFCQSYDGFNSAGFGGGTEVVVKR
B8 displayed an EC50 in assay [1] of 0.379 nM.

B9: Antibody Ab2 (antibody, human IgG1, kappa, N297A, V domains shown)
VH: EVQLVESGGGLVQPGGSLRLSCAASGFTVSSYAMSWVRQAPGKGLEWVGVITSIGSTVYASSAKGRFTISRDNSKNTLYLQMNSLRAEDTAVYYCARGYDDYDEMTYFNIWGQGTLVTVSS
VL: DIQMTQSPSTLSASVGDRVTITCQASQNIYSNLAWYQQKPGKAPKLLIYGASNLDAGVPSRFSGSGSGTEYTLTISSLQPDDFATYYCQSAFDSDSTENTFGGGTKVEIKR
As to B9, in assay [2], the EC50 amounted to 0.692 nM and the “EC50 (read off the curve)” value was approximately 0.7 nM.

B10: Antibody Ab5 (antibody, human IgG1, kappa, N297A, V domains shown)
VH: QSVEESGGRLVTPGTPLTLTCTVSGFSLSNYAVGWVRQAPGKGLEWIGIIGRNGNTWYASWARGRFTISKTSTTVDLKITSPTSEDTATYFCARGYGRSVAYYVFNIWGPGTLVTVSS
VL: AYDMTQTPASVEVAVGGTVTIKCQASQSIYSNLAWYQQRPGQPPKLLIYDASTLESGVPSRFKGSGSGTEYTLTISGVECADAASYYCQQGFTVSDIDNAFGGGTEVVVKR
B10: in assay [2], the EC50 is 0.253 nM and the “EC50 (read off the curve)” value was approximately 0.3 nM.

B11: Antibody Ab1 (antibody, human IgG1, kappa, N297A, V domains shown)
VH: QSLEESGGRLVTPGTPLTLTCTVSGFSLSSYAMSWVRQAPGKGLEWIGVITSIGSTVYASWAKGRFTISKTSTTVDLKITSPTTEDTATYFCARGYDDYDEMTYFNIWGQGTLVTVSS
VL: ALVMTQTPSSVSAAVGGTVTINCQASQNIYSNLAWYQQRPGQRPKLLIYGASNLDAGVPSRFRGSGSGTEYTLTISDLECDDVGTYYCQSAFDSDSTENTFGGGTEVVVKR
Turning to B11, in assay [2], the EC50 was 0.571 nM and the “EC50 (read off the curve)” value was approximately 0.6 nM.

B12: Antibody Ab14 (antibody, human IgG1, kappa, N297A, V domains shown)
VH: EVQLVESGGGLVQPGGSLRLSCAASGFTVSTYWMSWVRQAPGKGLEWVGDIYFSNEETNYASSAKGRFTISRDNSKNTLYLQMNSLRAEDTAVYYCARGSPDVDIGIDMWGPGTLVTVSS
VL: DIQMTQSPSSLSASVGDRVTITCQSSQNVYKNNYLSWYQQKPGKVPKLLIYKASTLASGVPSRFSGSGSGTDFTLTISSLQPEDVATYYCAGGYTSSSDNAFGGGTKVEIKR
As to B12, the midpoint of the response in assay [1], the EC50, lay at 0.646 nM.

B13: Antibody Ab20 (antibody, human IgG1, kappa, N297A, V domains shown)
VH: EVQLVESGGGLVQPGGSLRLSCAASGFTVSTYWMSWVRQAPGKGLEWVGDIYFSNEETNYATSAKGRFTISRDNSKNTLYLQMNSLRAEDTAVYYCARGSPDVEIAIDMWGQGTLVTVSS
VL: DIQMTQSPSSLSASVGDRVTITCQSSQNVYKNNYLSWYQQKPGKVPKLLIYKASTLASGVPSRFSGSGSGTDFTLTISSLQPEDVATYYCAGGYTSSSDNAFGGGTKVEIKR
B13 yielded an EC50 in assay [1] of 0.667 nM.

B14: Antibody Ab18 (antibody, human IgG1, kappa, N297A, V domains shown)
VH: EVQLVESGGGLVQPGGSLRLSCAASGFTVSGYNLVWVRQAPGKGLEWVGFISYGDTTYYASSAKGRFTISRDNSKNTLYLQMNSLRAEDTAVYYCARETANTYDYGIWGQGTLVTVSS
VL: DIQMTQSPSTLSASVGDRVTITCQASQTISNYLAWYQQKPGKAPKLLIYGASNLESGVPSRFSGSGSGTEFTLTISSLQPDDFATYYCQQGYTISNVDNNVFGGGTKVEIKR
Regarding B14, the EC50 in assay [1] was 0.561 nM.

B15: Antibody Ab16 (antibody, human IgG1, kappa, N297A, V domains shown)
VH: QSVEEFGGRLVTPGTPLTLTCTVSGFSLNNYAMTWVRQAPGKGLEWIGIIGSIGTTYYASWAKGRFFISKTSTTVDLKIISPTTEDTATYFCARDAGVTVDGYGYYFNIWGPGTLVTVSS
VL: ALVMTQTPSSTSEPVGGTVTINCQASQNIGNDLSWYQQKPGQPPELLIYSTSKLATGVPKRFSGSRSGTQFTLTISDLECDDAATYYCLGVYSYISDDGNAFGGGTEVVVKR
In the case of B15, in assay [1], the half-maximal effective concentration (EC50) was found to be 0.358 nM.

B16: Antibody Ab6 (antibody, human IgG1, kappa, N297A)
heavy: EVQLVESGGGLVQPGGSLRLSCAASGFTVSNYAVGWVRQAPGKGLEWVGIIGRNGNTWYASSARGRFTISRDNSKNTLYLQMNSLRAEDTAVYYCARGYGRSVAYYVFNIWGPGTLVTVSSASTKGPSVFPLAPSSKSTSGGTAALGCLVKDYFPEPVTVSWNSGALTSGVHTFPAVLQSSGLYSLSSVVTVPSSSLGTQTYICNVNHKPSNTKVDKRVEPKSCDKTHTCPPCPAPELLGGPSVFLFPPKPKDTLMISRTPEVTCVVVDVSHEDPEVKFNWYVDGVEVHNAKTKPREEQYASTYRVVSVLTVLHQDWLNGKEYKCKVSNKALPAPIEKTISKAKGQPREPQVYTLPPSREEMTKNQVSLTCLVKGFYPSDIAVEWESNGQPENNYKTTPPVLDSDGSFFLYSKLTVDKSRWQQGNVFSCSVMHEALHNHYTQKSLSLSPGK
light: DIQMTQSPSTLSASVGDRVTITCQASQSIYSNLAWYQQKPGKAPKLLIYDASTLESGVPSRFSGSGSGTEYTLTISSLQPDDFATYYCQQGFTVSDIDNAFGGGTKVEIKRTVAAPSVFIFPPSDEQLKSGTASVVCLLNNFYPREAKVQWKVDNALQSGNSQESVTEQDSKDSTYSLSSTLTLSKADYEKHKVYACEVTHQGLSSPVTKSFNRGEC
Regarding B16, in assay [2], it took 0.256 nM to reach a half-maximal effect (EC50) and the “EC50 (read off the curve)” value is approximately 0.3 nM.

B17: Antibody Ab17 (antibody, human IgG1, kappa, N297A, V domains shown)
VH: QSLEESGGRLVTPGGSLTLTCAASGFSLTGYNLVWVRQAPGKGLEWIGFISYGDTTYYASWAKGRFTISKTSTTVTLTITDLQPSDTGTYFCARETANTYDYGIWGPGTLVTVSS
VL: AIEMTQTPFSVSAAVGGTVTIKCQASQTISNYLAWYQQKPGQPPKLLIYGASNLESGVPSRFKGSGSGTQFTLTISDLECDDAATYYCQQGYTISNVDNNVFGGGTEVVVKR
Consider B17, for which the EC50 in assay [1] turned out to be 0.7 nM.

B18: Antibody Ab13 (antibody, human IgG1, kappa, N297A, V domains shown)
VH: QSVEASGGRLVTPGTPLTLTCTASGFSLSTYWMSWVRQAPGKGLEWIGDIYFSNEETNYASWAKGRFTISKTSTTVDLNVISPTTEDTATYFCARGSPDVDIGIDMWGPGTLVTVSS
VL: AAVLTQTPSPVSAAVGGTVSISCQSSQNVYKNNYLSWYQQKPGQPPKLLIYKASTLASGVPSRFKGGGSGTDFTLTISDVQCDAAATYYCAGGYTSSSDNAFGGGTEVVVKR
With B18, in assay [1], the midpoint of the response, the EC50, lay at 0.339 nM.

B19: Antibody Ab19 (antibody, human IgG1, kappa, N297A, V domains shown)
VH: QSVEASGGRLVMPGGSLTLTCTASGFSLSTYWMSWVRQAPGKGLEWIGDIYFSNEETNYATWAKGRFTISKTSTTVDLNVISPTTEDTATYFCARGSPDVEIAIDMWGQGTLVTVSS
VL: AAVLTQTPSPVSAAVGGTVSISCQSSQNVYKNNYLSWYQQKPGQPPKLLIYKASTLASGVPSRFKGSGSGTDFTLTISDVQCDAAATYYCAGGYSSSSDNAFGGGTEVVVKR
B19 registered a 50% effective concentration (EC50) in assay [1] of 0.441 nM.
